Where a chain is given by its changes, count along the chain named.
B1: B07 (antibody, V domains shown)
VH: EVQLLESGGGLVQPGGSLRLSCAASGFTFSSYWMSWVRQAPGKGLEWVANIKQDGSEKYYVDSVKGRFTISRDNAKNSLYLQMNSLRAEDTAVYYCARVCGYDDAFDIWGQGTMVTVSA
VL: NIQMTHSPSTLSASVGDRVTISCRASQSISTWLAWYQQKPGKAPKLLIYKASSLESGVPSRFSGSGSGTDFTLTISSLQPEDFATYYCQQSYSIPLTFGGGTKVEIK
notes: Fab phage clone converted into full-length IgG; also called 67C1-5
B2: B10 (antibody, V domains shown)
VH: QVQLVQSGGGLVQPGGSLRLSCAASGFTFSSYWMSWVRQAPGKGLEWVANIKQDGSEKYYVDSVKGRFTISRDNAKNSLFLQMNSLGAEDTAMYYCARATVKYGGDDAFDIWGQGTMVTVSA
VL: B1 VL with M4L, H6Q, S22T, T31D, K45N, Y92F, I94T, L96F, G100P, E105D
notes: Fab phage clone converted into full-length IgG; also called 67C3-14
B3: B16 (antibody, V domains shown)
VH: B1 VH with E1Q, E6D, C100A, G101L, Y102W
VL: B1 VL with N1D, H6Q, T10S, S22T, T31S, D70E, E81D, Q90H, Y92N, I94L
notes: Fab phage clone converted into full-length IgG; also called 67C3-10
B4: B04 (antibody, V domains shown)
VH: B1 VH with E1Q, E6D, V99T, C100M, G101L, Y102W
VL: B1 VL with N1D, M4L, H6Q, S22T, Q27E, T31S, A43V, I94T, L96P, G100Q
notes: Fab phage clone converted into full-length IgG; also called 67A3-15
B5: B06 (antibody, V domains shown)
VH: not shown
VL: DIQMTQSPSSLSASVGDRVTITCRASQGISSYLAWYQQKPGKAPKLLIYAASTLQSGVPDRFSGSGSGTDFTLTISSLQAEDVAVYYCQQYLSVPYTFGQGTKVEIK
notes: Fab phage clone converted into full-length IgG; also called 67A3-40
B6: B06-01 (antibody, V domains shown)
VH: not shown
VL: B5 VL
B7: B06-02 (antibody, V domains shown)
VH: not shown
VL: B5 VL
B8: B06-03 (antibody, V domains shown)
VH: not shown
VL: B5 VL
B9: B12-02 (antibody, V domains shown)
VH: B1 VH with E1Q, D54E, C100A, G101L, Y102W, A119S
VL: B1 VL with N1D, H6Q, T20I, S22T, Q27R, S28G, T31S, K45N, Y49S, Y92S
B10: B12-03 (antibody, V domains shown)
VH: B1 VH with E1Q, D54E, S63A, C100A, G101L, Y102W, A119S
VL: B1 VL with N1D, H6Q, T20I, S22T, Q27R, S28G, T31S, K45N, Y49S, Y92S
B11: B16-01 (antibody, V domains shown)
VH: B1 VH with E1Q, E6D, C100A, G101L, Y102W, A119S
VL: B1 VL with N1D, H6Q, T10S, S22T, T31S, D70E, E81D, Q90H, Y92N, I94L
B12: B01 (antibody, V domains shown)
VH: EVQLLESGGGLVQPGGSLRLSCAASGFTLSSHWLAWVRQAPGKGLEWVASIHQDASLEFYVDSVEGRFTISRDNSKRSLFLQMNNLRVEDTAVYYCARGDNQFDNWGQGTLVTVSA
VL: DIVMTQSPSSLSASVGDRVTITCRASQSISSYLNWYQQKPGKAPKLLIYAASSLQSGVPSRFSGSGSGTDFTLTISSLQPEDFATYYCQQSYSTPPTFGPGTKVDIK
notes: Fab phage clone converted into full-length IgG; also called 67A3-5
B13: B11 (antibody, V domains shown)
VH: EVQLLESGAEVKKPGSSVKVSCKASGGTFSSYAISWVRQAPGQGLEWMGGIIPIFGTANYAQKFQGRVTITADESTSTAYMELSSLRSEDTAVYYCARRTDSYGYSDAFDIWGQGTMVTVSA
VL: not shown
notes: Fab phage clone converted into full-length IgG; also called 67C3-17
B14: B13 (antibody, V domains shown)
VH: B2 VH with Q1E, V5L, Q6E, F80Y, G87R, M93V, Y95F, A99S, G105A, T116A
VL: B1 VL with H6Q, S22T, T31S, E55Q, I94T, L96F, G100P, E105D
notes: Fab phage clone converted into full-length IgG; also called 67C1-10
B15: B14 (antibody, V domains shown)
VH: B1 VH with L11E, G16R, T28S, Q53E, C100V, G101R, Y102F, D103N
VL: NIQLTQSPSSVSASVGDRVTITCRASQGISSWLAWYQQKPGKAPKLLIYAASSLQSGVPSRFSGSGSGTDFTLTISSLQPEDFATYYCQQANSFPFTFGPGTKVDIK
notes: Fab phage clone converted into full-length IgG; also called 67C2-19
B16: B17 (antibody, V domains shown)
VH: EVQLLESGGGLVQPGGSLRLSCAASGFTFSSNAMSWVRQAPGKGLEWVSAVGGGGVNTYYADSVKGRFTISRDNSKNTLYLQMNSLRAEDTAVYYCAKGEKGYSNSCIDYWGQGTLVTVSA
VL: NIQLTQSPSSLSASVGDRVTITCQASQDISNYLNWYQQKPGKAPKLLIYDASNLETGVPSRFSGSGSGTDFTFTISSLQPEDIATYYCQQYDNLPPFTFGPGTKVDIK
notes: Fab phage clone converted into full-length IgG; also called 67C2-23
B17: B02 (antibody, V domains shown)
VH: QVQLLESGGGLVKPGGSLRLSCAASGFTFSTYIINWVRQAPGKGLEWVSSVAASGDYAYYANSVKGRFTISRDNSKNTLYLQMNSLRAEDTAVYYCARDRSSGYYLSPNDAFDIWGQGTMVTVSA
VL: NIQLTQSPSSLSASLGDRVTITCRASQTISRYLNWYQQKPGKAPELLIYATSSLQSGVPSRFSGSGSGTDFTLTISSLQPEDFATYYCQQSYSTPTTFGGGTKVEIK
notes: Fab phage clone converted into full-length IgG; also called 67A2-20
B18: B03 (antibody, V domains shown)
VH: B1 VH with T28S, Q53E, C100V, G101R, Y102F, D103N
VL: DIQLTQSPSTLSASVGDRVTITCRASQSIDTWLAWYQQKPGKAPKLLIHNASTLKSGVSSRFSGSGSGTDFTLTISSLQPEDFATYYCQQSYSTPLTFGGGTKVEIK
notes: Fab phage clone converted into full-length IgG; also called 67A3-14
B19: B05 (antibody, V domains shown)
VH: EVQLVETGRGLVQPGRSLRLSCAASGFTFSSYWMSWVRQAPGKGLEWVANIKQDGSEKYYVDSVKGRFTISRDNAKNSLYLQMNSLRAEDTAVYYCARGGYYGDDDAFDIWGQGTMVTVSA
VL: B1 VL with H6Q, S22T, T31S, D70E, S91T, I94L, G100Q, K103R, E105G
notes: Fab phage clone converted into full-length IgG; also called 67A3-21
B20: B08 (antibody, V domains shown)
VH: EVQLLESGGGLVQPGGSLRLSCVGSGFTFSDHYMDWVRQAPGKGLEWVSSISSSSSYIYYADSVKGRFTISRDNAKNSLYLQMNSLRAEDTAVYYCARGRVGATNRFGMDVWGQGTMVTVSA
VL: DIQMIQSPSSVSASVGDRVTITCRASESISRWLAWYQQKPGKAPKLLIYAASNLESGVPSRFSGSGSGTEFTLTISSLQPEDFATYYCQQAESFPSFGQGTRLEIK
notes: Fab phage clone converted into full-length IgG; also called 67C2-1
B21: B09 (antibody, V domains shown)
VH: B1 VH with V99E, C100D, G101F, Y102W, D103S, D104G, A105Y, F106Q, I108V
VL: not shown
notes: Fab phage clone converted into full-length IgG; also called 67C2-9

target: T1, human PD-L1 on Raji cells (human, UniProt Q9NZQ7 19-290); assay: cell-based or functional assay
T1 sequence (Q9NZQ7 19-290): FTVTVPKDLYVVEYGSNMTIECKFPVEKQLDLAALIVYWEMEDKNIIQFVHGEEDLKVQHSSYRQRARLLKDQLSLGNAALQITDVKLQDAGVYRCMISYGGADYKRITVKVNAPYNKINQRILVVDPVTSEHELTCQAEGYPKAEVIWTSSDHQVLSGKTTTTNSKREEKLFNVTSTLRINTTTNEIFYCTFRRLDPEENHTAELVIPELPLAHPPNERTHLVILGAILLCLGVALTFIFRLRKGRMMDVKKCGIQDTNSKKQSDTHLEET

**Q.** With B1 as the binder, how does the “EC50 (NF-AT-luciferase RLU)” value read?
**A.** 1.02 nM

**Q.** For B2, which “EC50 (NF-AT-luciferase RLU)” value is on record?
**A.** 2.22 nM

**Q.** How did the “EC50 (NF-AT-luciferase RLU)” value turn out when B3 was run?
**A.** 1.05 nM

**Q.** For B4, which “EC50 (NF-AT-luciferase RLU)” value is on record?
**A.** 2.34 nM

**Q.** B5 was tested. Which “EC50 (NF-AT-luciferase RLU)” value did it give?
**A.** 0.516 nM

target: T1, human PD-L1 on Raji cells; assay: cell-based or functional assay; remark: another data set of the same source

**Q.** With B6 as the binder, how does the “EC50 (NF-AT-luciferase RLU)” value read?
**A.** 0.383 nM

**Q.** For B7, which “EC50 (NF-AT-luciferase RLU)” value is on record?
**A.** 0.97 nM

**Q.** B8 was tested. Which “EC50 (NF-AT-luciferase RLU)” value did it give?
**A.** 0.907 nM

**Q.** B9 was tested. Which “EC50 (NF-AT-luciferase RLU)” value did it give?
**A.** 0.497 nM

**Q.** How did the “EC50 (NF-AT-luciferase RLU)” value turn out when B10 was run?
**A.** 0.517 nM

**Q.** With B11 as the binder, how does the “EC50 (NF-AT-luciferase RLU)” value read?
**A.** 0.611 nM

target: T2, recombinant human PD-L1 (Sino Biological, Cat#: 10084-H08H) (human, UniProt Q9NZQ7 19-238); assay: ELISA, plate coated with human PD-L1 at 1 ug/ml, detection with goat anti-human IgG-HRP, OD450
T2 construct: Bought protein; also called human PD-L1 protein
Protocol: To evaluate antigen binding activity, the antibodies were subjected to ELISA test. Briefly, microtiter plates were coated with human PD-L1 protein at 1 μg/ml in PBS, 100 μl/well at 4° C. overnight, then blocked with 100 μl/well of 1% BSA. 4-fold dilutions of humanized antibodies starting from 10 μg/ml were added to each well and incubated for 1-2 hours at RT. The plates were washed with PBS/Tween and then incubate with goat-anti-human IgG antibody conjugated with Horse Radish Peroxidase (HRP) for 1 hour at RT. After washing, the plates were developed with TMB substrate and analyzed by spectrophotometer at OD 450 nm.

T2 sequence (Q9NZQ7 19-238 limits assumed): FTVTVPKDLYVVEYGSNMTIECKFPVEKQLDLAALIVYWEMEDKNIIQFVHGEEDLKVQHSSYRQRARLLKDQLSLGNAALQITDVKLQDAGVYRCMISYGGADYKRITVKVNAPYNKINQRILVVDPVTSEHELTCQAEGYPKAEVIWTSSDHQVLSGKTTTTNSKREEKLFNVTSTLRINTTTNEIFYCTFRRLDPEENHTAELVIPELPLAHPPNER

**Q.** B1 was tested. Which EC50 did it give?
**A.** 0.124 nM

**Q.** B2 was tested. Which EC50 did it give?
**A.** 0.31 nM

**Q.** B3 was tested. Which EC50 did it give?
**A.** 0.147 nM

**Q.** How did the EC50 turn out when B4 was run?
**A.** 0.19 nM

**Q.** Which EC50 does the source give for B5 here?
**A.** 0.236 nM

**Q.** With B12 as the binder, how does the EC50 read?
**A.** 18 nM

**Q.** B13 was tested. Which EC50 did it give?
**A.** 0.294 nM

**Q.** How did the EC50 turn out when B14 was run?
**A.** 0.13 nM

**Q.** Which EC50 does the source give for B15 here?
**A.** 0.222 nM

**Q.** B16 was tested. Which EC50 did it give?
**A.** 36.1 nM

**Q.** B17 was tested. Which EC50 did it give?
**A.** 15.5 nM

**Q.** How did the EC50 turn out when B18 was run?
**A.** 1.28 nM

**Q.** Which EC50 does the source give for B19 here?
**A.** 0.625 nM

**Q.** Which EC50 does the source give for B20 here?
**A.** 1.63 nM

**Q.** With B21 as the binder, how does the EC50 read?
**A.** 14.3 nM

Source: patent US20210309747A1 (I MAB BIOPHARMA US, published 2021)
